This is an account of results in patent US20220315627A1.

The target in test [1] is C97ZA_SOSIP_L556P_T651F_M535N (HIV-1 strain C97ZA (clade C)). The test can be described thus: AlphaLISA on crude supernatant as in Example 3: normalized PGT145 signal. Background: Alpha assays give light when donor and acceptor beads are brought close together.
The target in test [2] is variant of repaired and stabilized Du422 construct (HIV161818) with the additional K655I substitution (HIV-1 strain Du422 (clade C)). The test can be described thus: assay not named in Example 11; trimer percentage as defined in Example 3 (PGT145 AlphaLISA signal over total Env signal).
Test [3] deals with ConC_SOSIP with disulfide double substitution I204C, A433C (HIV-1 clade C consensus (artificial)). Briefly: AlphaLISA on crude supernatant: PGT145 signal divided by total Env signal (His/Flag beads).
Test [4] concerns the target ConC_SOSIP with E64K, T316W double substitution (HIV-1 clade C consensus (artificial)). The test is described as above.
Test [5] addresses variant of repaired and stabilized Du422 construct (HIV161818) with the additional K655I substitution (HIV-1 strain Du422 (clade C)). Briefly: assay not named in Example 11; trimer yield as defined in Example 3 (PGT145 AlphaLISA signal).

With mAb PGT145 (antibody), the trimer yield, fold over the C97ZA SOSIP backbone in test [1] stood at 5 fold. This substance returned a trimer percentage, fold over the variant of SEQ ID NO: 25 without K655I in test [2] of 1.4 fold. In addition, the percentage of trimer formation in test [3] was 43%; in test [4] it was 15%. In test [5], this substance registered a trimer yield, fold over the variant of SEQ ID NO: 25 without K655I of 1.3 fold.
